# T1: SIP2 D1 (Plasmodium falciparum, UniProt C6KSN9 177-235)
# T1 sequence: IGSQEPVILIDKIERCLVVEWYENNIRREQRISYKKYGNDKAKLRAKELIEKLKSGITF
# T2: HDP1 homeodomain-like (Plasmodium falciparum, UniProt Q8IKH4 2990-3078)
# T2 sequence: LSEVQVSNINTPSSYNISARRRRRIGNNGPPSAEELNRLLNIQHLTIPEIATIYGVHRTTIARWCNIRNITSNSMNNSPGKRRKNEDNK
# What was measured:
# Test in all cases: gcPBM; about 25 ug protein; PBS, 1% milk, 0.2 mg/ml BSA, salmon testes DNA, 0.03% Triton X-100
# SIP2 D1 = molecular target: T1, SIP2 D1; settings: tags: N-terminal GST (pGEX-4T-1), kept; label: surface-attached array probe
# AP2-I D3 = AP2-I D3 (Plasmodium falciparum, UniProt Q8IJW6 910-1027); settings: tags: N-terminal GST (pGEX-4T-1), kept; label: surface-attached array probe
# HDP1 homeodomain-like = molecular target: T2, HDP1 homeodomain-like; settings: tags: N-terminal GST (pGEX-4T-1), kept; chain copies: 2; label: surface-attached array probe
Binder,binding signal (SIP2 D1),binding signal (AP2-I D3),binding signal (HDP1 homeodomain-like)
GTGCAC_negctrl_site45 (dsDNA) DNA 1: TTATGTTGCGAGTTCTTAAGATATAAAAAATTCTTC DNA 2: GAAGAATTTTTTATATCTTAAGAACTCGCAACATAA,"6.87 ln median PBM intensity, better of two orientations","7.08 ln median PBM intensity, better of two orientations",–
GTGCAC_negctrl_site490 (dsDNA) DNA 1: TGTATAAAAAGAAAAAATCGTATGTGTTATCAAAAA DNA 2: TTTTTGATAACACATACGATTTTTTCTTTTTATACA,"6.88 ln median PBM intensity, better of two orientations","6.98 ln median PBM intensity, better of two orientations",–
GTGCAC_negctrl_site278 (dsDNA) DNA 1: TTTTTTACATACAGAAATATATAATATAAAATAAAT DNA 2: ATTTATTTTATATTATATATTTCTGTATGTAAAAAA,"6.9 ln median PBM intensity, better of two orientations","7.19 ln median PBM intensity, better of two orientations",–
GTGCAC_negctrl_site669 (dsDNA) DNA 1: AAAAAAAAGTATGATTCTAAATTTATGTATATATAA DNA 2: TTATATATACATAAATTTAGAATCATACTTTTTTTT,"6.9 ln median PBM intensity, better of two orientations","7.05 ln median PBM intensity, better of two orientations",–
GTGCAC_negctrl_site129 (dsDNA) DNA 1: AATTTAATCCGTAATAAGAAAAGAAAAAAAAAAAGA DNA 2: TCTTTTTTTTTTTCTTTTCTTATTACGGATTAAATT,"6.91 ln median PBM intensity, better of two orientations","7.24 ln median PBM intensity, better of two orientations",–
GTGCAC_negctrl_site283 (dsDNA) DNA 1: ATAATTCCAAGAATTTCATATATCTGAATTTTAGGT DNA 2: ACCTAAAATTCAGATATATGAAATTCTTGGAATTAT,"6.91 ln median PBM intensity, better of two orientations","6.92 ln median PBM intensity, better of two orientations",–
GTGCAC_negctrl_site701 (dsDNA) DNA 1: ATTAATATGAAACGATTATAAGAAAGAAAAGAAATG DNA 2: CATTTCTTTTCTTTCTTATAATCGTTTCATATTAAT,"6.92 ln median PBM intensity, better of two orientations","7.09 ln median PBM intensity, better of two orientations",–
GTGCAC_site10418 (dsDNA) DNA 1: CTTTTCTATTTTTTCGTGCACTATAAATATTTTAAT DNA 2: ATTAAAATATTTATAGTGCACGAAAAAATAGAAAAG,"10.6 ln median PBM intensity, better of two orientations","12.3 ln median PBM intensity, better of two orientations",–
GTGCAC_site9624 (dsDNA) DNA 1: GACAAATAATAAAAGGTGCATTATACTTAACAAAAA DNA 2: TTTTTGTTAAGTATAATGCACCTTTTATTATTTGTC,"11.4 ln median PBM intensity, better of two orientations","12.2 ln median PBM intensity, better of two orientations",–
GTGCAC_site9981 (dsDNA) DNA 1: ATAATGTTCACATAGGTGCACTAATATAATTATCCA DNA 2: TGGATAATTATATTAGTGCACCTATGTGAACATTAT,"11.4 ln median PBM intensity, better of two orientations","12.2 ln median PBM intensity, better of two orientations",–
GTGCAC_site9422 (dsDNA) DNA 1: CACTCTTAAAATAAGGTGCACTATATAACGTGATTA DNA 2: TAATCACGTTATATAGTGCACCTTATTTTAAGAGTG,"11.7 ln median PBM intensity, better of two orientations","12.2 ln median PBM intensity, better of two orientations",–
GTGCAC_site10153 (dsDNA) DNA 1: AAAATGTAATATTGGGTGCACAATAAGTTTGATGTC DNA 2: GACATCAAACTTATTGTGCACCCAATATTACATTTT,"11.5 ln median PBM intensity, better of two orientations","12.2 ln median PBM intensity, better of two orientations",–
GTGCAC_site9431 (dsDNA) DNA 1: TCTTCTTTAAAAGAGGTGCACTATATAATGTGATTA DNA 2: TAATCACATTATATAGTGCACCTCTTTTAAAGAAGA,"11.8 ln median PBM intensity, better of two orientations","12.2 ln median PBM intensity, better of two orientations",–
GTGCAC_site10051 (dsDNA) DNA 1: AATAAATTAAAACAGGTGCACTATATTACACACGCT DNA 2: AGCGTGTGTAATATAGTGCACCTGTTTTAATTTATT,"11.6 ln median PBM intensity, better of two orientations","12 ln median PBM intensity, better of two orientations",–
GTGCAC_site10073 (dsDNA) DNA 1: AAATACTGTACAAAGGTGCATAAAAAGTGGGGCATA DNA 2: TATGCCCCACTTTTTATGCACCTTTGTACAGTATTT,"11.1 ln median PBM intensity, better of two orientations","11.7 ln median PBM intensity, better of two orientations",–
GTGCAC_site9947 (dsDNA) DNA 1: TATTTGAAAACATAGGTGCACATTATTTTATAATCT DNA 2: AGATTATAAAATAATGTGCACCTATGTTTTCAAATA,"11.6 ln median PBM intensity, better of two orientations","11.1 ln median PBM intensity, better of two orientations",–
GTGCAC_site10368 (dsDNA) DNA 1: ACATGTGAATTTTAGGTGCACTTGTAATTTAACATT DNA 2: AATGTTAAATTACAAGTGCACCTAAAATTCACATGT,"11.7 ln median PBM intensity, better of two orientations","10.9 ln median PBM intensity, better of two orientations",–
GTGCAC_site10578 (dsDNA) DNA 1: CATATTGTCATTCTGGTGCACTTTTTTTTTTTTTTT DNA 2: AAAAAAAAAAAAAAAGTGCACCAGAATGACAATATG,"11.4 ln median PBM intensity, better of two orientations","10.9 ln median PBM intensity, better of two orientations",–
GTGCAC_site9957 (dsDNA) DNA 1: TTTTAATGTACCAGTGTGCACCTTGCGTACATATTA DNA 2: TAATATGTACGCAAGGTGCACACTGGTACATTAAAA,"11.8 ln median PBM intensity, better of two orientations","10.3 ln median PBM intensity, better of two orientations",–
GTGCAC_site10700 (dsDNA) DNA 1: ATTATACAAATTGAGGTGCATGAAACAAAATATGAA DNA 2: TTCATATTTTGTTTCATGCACCTCAATTTGTATAAT,"10.6 ln median PBM intensity, better of two orientations","9.77 ln median PBM intensity, better of two orientations",–

Binder,binding signal (SIP2 D1),binding signal (AP2-I D3),binding signal (HDP1 homeodomain-like)
GTGCAC_site9615 (dsDNA) DNA 1: TTATTTTATTTTTTTGTGCACATATATATTTATAAA DNA 2: TTTATAAATATATATGTGCACAAAAAAATAAAATAA,–,–,"11.9 ln median PBM intensity, better of two orientations"
GTGCAC_site9630 (dsDNA) DNA 1: TTTAATTTATATTTTGTGCACATCTTATTATATATA DNA 2: TATATATAATAAGATGTGCACAAAATATAAATTAAA,–,–,"11.7 ln median PBM intensity, better of two orientations"
GTGCAC_site10340 (dsDNA) DNA 1: ATTATTATTAATCTTGTGCACATATATTTTAATTAG DNA 2: CTAATTAAAATATATGTGCACAAGATTAATAATAAT,–,–,"11.6 ln median PBM intensity, better of two orientations"
GTGCAC_site10523 (dsDNA) DNA 1: TCGTTTCATAATATTGTGCACATATATATTTACAAT DNA 2: ATTGTAAATATATATGTGCACAATATTATGAAACGA,–,–,"11.5 ln median PBM intensity, better of two orientations"
GTGCAC_site10054 (dsDNA) DNA 1: GTCTATATATTTTAGGTGCAACGTAAATGTAAAAAT DNA 2: ATTTTTACATTTACGTTGCACCTAAAATATATAGAC,–,–,"11.5 ln median PBM intensity, better of two orientations"
GTGCAC_site9812 (dsDNA) DNA 1: TGTTTTATTTTTTTTGTGCACATACCTTTAGCATCA DNA 2: TGATGCTAAAGGTATGTGCACAAAAAAAATAAAACA,–,–,"11.4 ln median PBM intensity, better of two orientations"
GTGCAC_site10770 (dsDNA) DNA 1: TATATACATTTTTATGTGCACATTTTATTTTTAAAT DNA 2: ATTTAAAAATAAAATGTGCACATAAAAATGTATATA,–,–,"11.4 ln median PBM intensity, better of two orientations"
GTGCAC_site9596 (dsDNA) DNA 1: TATATTTTTATGTGTGTGCACAAAATAACAAAATAT DNA 2: ATATTTTGTTATTTTGTGCACACACATAAAAATATA,–,–,"11.4 ln median PBM intensity, better of two orientations"
GTGCAC_site10451 (dsDNA) DNA 1: ATGTTATAATTTAGTGTGCACATATTAAGAGGAACA DNA 2: TGTTCCTCTTAATATGTGCACACTAAATTATAACAT,–,–,"11.4 ln median PBM intensity, better of two orientations"
GTGCAC_site9671 (dsDNA) DNA 1: GTTACAGAGAATGTTGTGCACATATCAATAATATAT DNA 2: ATATATTATTGATATGTGCACAACATTCTCTGTAAC,–,–,"11.4 ln median PBM intensity, better of two orientations"
GTGCAC_site10755 (dsDNA) DNA 1: TAATGCAACATTTATGTGCACATAAATATTTTTTAA DNA 2: TTAAAAAATATTTATGTGCACATAAATGTTGCATTA,–,–,"11.4 ln median PBM intensity, better of two orientations"
GTGCAC_site9536 (dsDNA) DNA 1: AATAATATACCTCTTGTGCACATATTAAAAGTTCAT DNA 2: ATGAACTTTTAATATGTGCACAAGAGGTATATTATT,–,–,"11.3 ln median PBM intensity, better of two orientations"
GTGCAC_site9611 (dsDNA) DNA 1: TATGAAACGATATATGTGCACATGAGGGAATATAGA DNA 2: TCTATATTCCCTCATGTGCACATATATCGTTTCATA,–,–,"11.3 ln median PBM intensity, better of two orientations"
GTGCAC_site9931 (dsDNA) DNA 1: ATAAAAATAAAAAGTGTGCACACAAAAATATATATA DNA 2: TATATATATTTTTGTGTGCACACTTTTTATTTTTAT,–,–,"11.3 ln median PBM intensity, better of two orientations"
GTGCAC_site9822 (dsDNA) DNA 1: ATCGTGTTAAATGTTGTGCACATATAAATTACAAAA DNA 2: TTTTGTAATTTATATGTGCACAACATTTAACACGAT,–,–,"11.3 ln median PBM intensity, better of two orientations"
GTGCAC_site10342 (dsDNA) DNA 1: TTTTTAAACCATGTTGTGCACATTTTTTTTGGATTT DNA 2: AAATCCAAAAAAAATGTGCACAACATGGTTTAAAAA,–,–,"11.3 ln median PBM intensity, better of two orientations"
GTGCAC_site10665 (dsDNA) DNA 1: TATGTATATTTTTTTGTGCACATATATATATATATA DNA 2: TATATATATATATATGTGCACAAAAAAATATACATA,–,–,"11.3 ln median PBM intensity, better of two orientations"
GTGCAC_site10194 (dsDNA) DNA 1: AATTTTCCATAGATTGTGCACAAATTTTTATTTTGT DNA 2: ACAAAATAAAAATTTGTGCACAATCTATGGAAAATT,–,–,"11.3 ln median PBM intensity, better of two orientations"
GTGCAC_site10009 (dsDNA) DNA 1: AAATATAGAATACATGTGCACATAATATATATATAT DNA 2: ATATATATATATTATGTGCACATGTATTCTATATTT,–,–,"11.3 ln median PBM intensity, better of two orientations"

# From PMC11417369, “DNA sequence and chromatin differentiate sequence-specific transcription factor binding in the human malaria parasite Plasmodium falciparum”
